Reference: the nanobody polyreactivity screen of Harvey et al. (2022)

Assay: yeast display, Sf9 membrane polyspecificity reagent, FACS + sequencing; frameworks hold sequencing errors
Outline: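 A synthetic nanobody library was expressed on Saccharomyces cerevisiae BJ5465 by galactose induction for 36–48 hours. The library was stained for 1 hour at 4 °C with 10% biotinylated, detergent-solubilized Sf9 membrane reagent and enriched with streptavidin microbeads before FACS. Low and high (top ~1%) gates were set on anti-HA fluorescence for expression and streptavidin fluorescence for reagent binding, and each polyreactivity label reflects the gate of origin.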

| Sequence | polyreactivity (PSR sort gate) |
| --- | --- |
| QVQLVESGGGLVQAGGSLRLSCAASGFIFWYYAMGWYRQAPGKERELVAAISWSGTSTYYADSVKGRFTISRDNAKNTVYLQMNSLKPEDTAVYYCAAGPYSYYPLHAHYDYWGQGTQVTVSS | high polyreactivity |
| QVQLVESGGGLVQAGGSLRLSCAASGFIFWYYAMGWYRQAPGKERELVAAITSGGSTNYADSVKGRFTISRDNAKNTVYLQMNSLKPEDTAVYYCARPYVTYEYDYWGQGTQVTVSS | low polyreactivity |
| QVQLVESGGGLVQAGGSLRLSCAASGFIFWYYAMGWYRQAPGKERELVAAITSRGGSTYYADSVKGRFTISSDNAKNTDYLQMNSLKPEDTAVYYCAAKFPSRFYSFVQYYYWGQGTQVTVSS | high polyreactivity |
| QVQLVESGGGLVQAGGSLRLSCAASGFIFWYYDMGWYRPAPGKEREFVAAITRSSGSTYYADSVKGRFTISRDNAKNTVYLQMNSLKPEDTAVYYCNADSVAYGDEYDYWGQGTQVTVSS | low polyreactivity |
| QVQLVESGGGLVQAGGSLRLSCAASGFIFYANAMGWYRQAPGKERELVAAITWSGSRTYYADSVKGRFTISRDNAKNTVYLQMNSLKPEDTAVYYCNKDWYVGSFGYPEDYWGQGTQVTVSS | low polyreactivity |
| QVQLVESGGGLVQAGGSLRLSCAASGFIFYDYAMGWYRQAPGKERELVAAIRSSDGGTYYADSVKGRFTISRDNAKNTVYLQMNSLKPEDTAVYYCAAEIRWGWHPYYDYDEYWGQGTQVTVSS | low polyreactivity |
| QVQLVESGGGLVQAGGSLRLSCAASGFIFYDYAMGWYRQAPGKERELVAAISSGGSTNYADSVKGRFTISRDNAKNSVYLQMNSLKPEDTAVYYCAADDRSYATWKRDYDYWGQGTQVTVSS | low polyreactivity |
| QVQLVESGGGLVQAGGSLRLSCAASGFIFYDYAMGWYRQAPGKERELVAAITVDGGTTYYADSVKGRFTISRDNAKNTVYLQMNSLKPEDTAVYYCAADTYYGFDSNYEYWGQGTQVTVSS | low polyreactivity |
| QVQLVESGGGLVQAGGSLRLSCAASGFIFYDYAMGWYRQAPGKERELVAGITDSGGSTSYADSVKGRFTISRDNAKNTVYLHMNSLKPEDTAVYYCAADNYVRAGINYDYWGQGTQVTVSS | low polyreactivity |
| QVQLVESGGGLVQAGGSLRLSCAASGFIFYDYAMGWYRQAPGKERELVAVITSGGSTYYADSVKGRFTISRDNAKNTVYLQMNSLKPEDTAVYYCNADWVFTWYDYPNDKYDYWGQGTQVTVSS | low polyreactivity |
| QVQLVESGGGLVQAGGSLRLSCAASGFIFYEYAMGWYRQAPGKERELVAAITSGGSTDYADSVKGRFTISRDNANNTVYLQMNSLKPEDTAVYYCNADLFTGYYWYNYWGQGTQVTVSS | low polyreactivity |
| QVQLVESGGGLVQAGGSLRLSCAASGFIFYGNAMGWYRQAPGKERELVAAITRRGGRTYYADSVKGRFTISRDNAKNTVYLQMNSLKPEDTAVYYCAKDRGRSLEMDYWGQGTQVTVSS | high polyreactivity |
| QVQLVESGGGLVQAGGSLRLSCAASGFIFYGYDMGWYRQAPGKETELVASISVRGGDTYYADSVKGRFTISRDNAKNTVYLQMNSLKPEDTAVYDCNAEGYPGRFSYGVVYGDVGYDYWGQGTQVTVSS | low polyreactivity |
| QVQLVESGGGLVQAGGSLRLSCAASGFIFYIYAMGWYRQAPGKERELVAAISWNGGSTYYADSVKGRFTISRDNAKNTVYLQMNSLKPEDTAVYYCATLARYRYGTGRFDYCGQGTQVTVSS | high polyreactivity |
| QVQLVESGGGLVQAGGSLRLSCAASGFIFYKNAMGWYRQAPGKERELVAAINFSTGRTYYADSVKGRFTISRDNAKNTVYLQMNSLKPEDTAVYDCATKSANPRKYYYWGQVTQVTVSS | high polyreactivity |
| QVQLVESGGGLVQAGGSLRLSCAASGFIFYKNAMGWYRQAPGKERELVAAITQRGGRTYYADSVKGRFTISRDNSKNTVYLQMNSLKPEDTAVYYCAAKALYGKQAWRYNYWGQGTQVTVSS | high polyreactivity |
| QVQLVESGGGLVQAGGSLRLSCAASGFIFYKYTMGWYRQAPGKERELVAAISTSGGRTYYADSVKGRFTISRDNAKNTVYLQMNSLKPEDTAVYYCAAQYSYPYYKVTLYYWGQGTQVTVSS | high polyreactivity |
| QVQLVESGGGLVQAGGSLRLSCAASGFIFYLYARGWYRQAPGKERELVAAITRRGGSTYYADSVKGRFTISRDIAKNTFYLQMNSLKPEDTAVYYCAADHYGFFSAGDFDYWGQGTQVTVSS | high polyreactivity |
| QVQLVESGGGLVQAGGSLRLSCAASGFIFYLYTMGWYRQAPGTEMEVVAAITQSGTRTYYADSVKGRFTISRDNAKNTVYLQMNSLKPVDTAVYYCAAEWGSSYRWGMDYWGQGTQVTVSS | high polyreactivity |
| QVQLVESGGGLVQAGGSLRLSCAASGFIFYNYAMGWYRQAPGKERELVAAITGGGSTNYADSVKGRFTISRDNAKNTVYLQMNSLKPEDTAVYYCAAEEGPPWSRYDYWGQGTQVTVSS | low polyreactivity |
| QVQLVESGGGLVQAGGSLRLSCAASGFIFYPYAMGWYRQAPGKERELVASIYSGGRTYYADSVKGRFTISRDNAKHTVYLQMNSLKPEDTAVYYCNARSRYFGYDYWGQGTQVTVSS | high polyreactivity |
